This passage reports Kd, Relative Affinity (to IGF-1) and fold affinity relative to human insulin results from patent US20100099601A1.

For the assay, the target named is Insulin-like Growth Factor Receptor (IGFR; Type I IGF receptor) (UniProt P08069). Kind of assay: displacement of 125I-IGF-1 from IGFR. A general note: In a radioligand displacement assay an active substance lowers the binding of a labelled ligand.

Regarding “Lantus (insulin analogue with two additional Arg residues at the carboxy-terminal end of the B-chain) (ligand)”, the dissociation constant (Kd) is 3.14 nM, the Relative Affinity (to IGF-1) is 0.015 fold and the fold affinity relative to human insulin was in the range of 2 to 3 fold.

Usually Kd stands for a measure of binding affinity in units of concentration.
